Laboratory results as given in US20220308072A1.

How the values were obtained:
[1] = target: Recombinant, his tagged full length human frataxin protein (Abcam ab95502) (human) (UniProt Q16595); experiment: Simoa sandwich 3-step; capture Ab-1; frataxin 1000 pg/mL
[2] = target: Recombinant, his tagged full length human frataxin protein (Abcam ab95502) (human) (UniProt Q16595); experiment: Simoa sandwich 2-step; capture Ab-2
[3] = target: Recombinant, his tagged full length human frataxin protein (Abcam ab95502) (human) (UniProt Q16595); experiment: Simoa sandwich 3-step; capture Ab-4; frataxin 100 pg/mL
[4] = target: Recombinant, his tagged full length human frataxin protein (Abcam ab95502) (human) (UniProt Q16595); experiment: Simoa sandwich 2-step; capture Ab-1; frataxin 167 pg/mL
[5] = target: Recombinant, his tagged full length human frataxin protein (Abcam ab95502) (human) (UniProt Q16595); experiment: Simoa sandwich 2-step; capture Ab-1; 150 pM SβG
[6] = target: Recombinant, his tagged full length human frataxin protein (Abcam ab95502) (human) (UniProt Q16595); experiment: Simoa sandwich 3-step; capture Ab-2; frataxin 10000 pg/mL
[7] = target: Recombinant, his tagged full length human frataxin protein (Abcam ab95502) (human) (UniProt Q16595); experiment: Simoa sandwich 2-step (35 min-5 min); capture Ab-1; with helper beads
[8] = target: Recombinant, his tagged full length human frataxin protein (Abcam ab95502) (human) (UniProt Q16595); experiment: Simoa sandwich 2-step (120 min-5 min); capture Ab-1; Diluent 1 + 10% NCS
[9] = target: Recombinant, his tagged full length human frataxin protein (Abcam ab95502) (human) (UniProt Q16595); experiment: Simoa sandwich 2-step; capture Ab-1; 50 pM SβG; frataxin 6.17 pg/mL
[10] = target: Recombinant, his tagged full length human frataxin protein (Abcam ab95502) (human) (UniProt Q16595); experiment: Simoa sandwich 2-step (35 min-5 min); capture Ab-1; with helper beads; frataxin 55.6 pg/mL
[11] = target: Recombinant, his tagged full length human frataxin protein (Abcam ab95502) (human) (UniProt Q16595); experiment: Simoa sandwich 3-step; capture Ab-3
[12] = target: Recombinant, his tagged full length human frataxin protein (Abcam ab95502) (human) (UniProt Q16595); experiment: Simoa sandwich 2-step (35 min-5 min); capture Ab-1; with helper beads; frataxin 6.17 pg/mL
[13] = target: Recombinant, his tagged full length human frataxin protein (Abcam ab95502) (human) (UniProt Q16595); experiment: Simoa sandwich 2-step; capture Ab-2; remark: listed apart in the source
[14] = target: Recombinant, his tagged full length human frataxin protein (Abcam ab95502) (human) (UniProt Q16595); experiment: Simoa sandwich 2-step (120 min-5 min); capture Ab-1; frataxin 8.23 pg/mL
[15] = target: Recombinant, his tagged full length human frataxin protein (Abcam ab95502) (human) (UniProt Q16595); experiment: Simoa sandwich 2-step (120 min-5 min); capture Ab-1; Diluent 1 + 5% NCS; frataxin 4.12 pg/mL
[16] = target: Recombinant, his tagged full length human frataxin protein (Abcam ab95502) (human) (UniProt Q16595); experiment: Simoa sandwich 2-step (120 min-5 min); capture Ab-1; Diluent 1 + 10% NCS; frataxin 1.37 pg/mL
[17] = target: Recombinant, his tagged full length human frataxin protein (Abcam ab95502) (human) (UniProt Q16595); experiment: Simoa sandwich 3-step; capture Ab-1
[18] = target: Recombinant, his tagged full length human frataxin protein (Abcam ab95502) (human) (UniProt Q16595); experiment: Simoa sandwich; capture Ab-1; no helper beads
[19] = target: Recombinant, his tagged full length human frataxin protein (Abcam ab95502) (human) (UniProt Q16595); experiment: Simoa sandwich 2-step (120 min-5 min); capture Ab-1; Diluent 1 + 5% NCS; frataxin 2.47 pg/mL
[20] = target: Recombinant, his tagged full length human frataxin protein (Abcam ab95502) (human) (UniProt Q16595); experiment: Simoa sandwich 2-step (120 min-5 min); capture Ab-1; Diluent 1 + 5% NCS; frataxin 12.3 pg/mL
[21] = target: Recombinant, his tagged full length human frataxin protein (Abcam ab95502) (human) (UniProt Q16595); experiment: Simoa sandwich; capture Ab-1; no helper beads; frataxin 167 pg/mL
[22] = target: Recombinant, his tagged full length human frataxin protein (Abcam ab95502) (human) (UniProt Q16595); experiment: Simoa sandwich 2-step (120 min-5 min); capture Ab-1; Diluent 1 + 10% NCS; frataxin 1000 pg/mL
[23] = target: Recombinant, his tagged full length human frataxin protein (Abcam ab95502) (human) (UniProt Q16595); experiment: Simoa sandwich 3-step; capture Ab-3; frataxin 100 pg/mL
[24] = target: Recombinant, his tagged full length human frataxin protein (Abcam ab95502) (human) (UniProt Q16595); experiment: Simoa sandwich 2-step (120 min-5 min); capture Ab-1; Diluent 1 + 5% NCS; frataxin 111 pg/mL
[25] = target: Recombinant, his tagged full length human frataxin protein (Abcam ab95502) (human) (UniProt Q16595); experiment: Simoa sandwich 2-step (120 min-5 min); capture Ab-1; Diluent 1 + 5% NCS; frataxin 66.7 pg/mL

UniProt Q16595, sequence (Q16595 42-210): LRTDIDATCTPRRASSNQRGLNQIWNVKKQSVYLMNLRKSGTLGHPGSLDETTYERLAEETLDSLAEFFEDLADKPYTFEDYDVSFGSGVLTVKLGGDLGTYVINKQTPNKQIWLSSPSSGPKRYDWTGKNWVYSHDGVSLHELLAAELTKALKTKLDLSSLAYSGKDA

Ab-3, mouse monoclonal [18A5DB1] to Frataxin (Abcam ab110328) (antibody)
Ave AEB [1]: 17.4 AEB
S/B [1]: 352
LOD [2]: 0.23 pg/mL
Ave AEB [3]: 2.79 AEB
S/B [3]: 23.8
Ave AEB [4]: 15.1 AEB
S/B [4]: 145
LOD [5]: 0.272 pg/mL
Ave AEB [6]: 32.2 AEB
S/B [6]: 725
Estimated LLOQ [7]: 0.321 pg/mL
LOD [7]: 0.117 pg/mL
LOD [8]: 0.323 pg/mL
Ave AEB [9]: 0.194 AEB
S/B [9]: 10.6
AEB Rep1 [10]: 3.47 AEB
AEB Rep2 [10]: 3.28 AEB
Ave AEB [10]: 3.38 AEB
S/B [10]: 139
LOD [11]: 11.9 pg/mL
AEB Rep1 [12]: 0.387 AEB
AEB Rep2 [12]: 0.399 AEB
Ave AEB [12]: 0.393 AEB
S/B [12]: 16.1
LOD [13]: 0.27 pg/mL
AEB rep1 [14]: 0.0466 AEB
AEB rep2 [14]: 0.048 AEB
AEB rep3 [14]: 0.0517 AEB
Ave AEB [14]: 0.0487 AEB
S/B [14]: 5.91
Ave AEB [15]: 0.0434 AEB
S/B [15]: 3.95
Ave AEB [16]: 0.0153 AEB
S/B [16]: 1.42
LOD [17]: 0.59 pg/mL
Estimated LLOQ [18]: 1.16 pg/mL
LOD [18]: 0.551 pg/mL
Ave AEB [19]: 0.0609 AEB
S/B [19]: 3.37
Ave AEB [20]: 0.123 AEB
S/B [20]: 11.2
AEB Rep1 [21]: 2.42 AEB
AEB Rep2 [21]: 2.1 AEB
Ave AEB [21]: 2.26 AEB
S/B [21]: 100
Ave AEB [22]: 5.18 AEB
S/B [22]: 482
Ave AEB [23]: 0.0152 AEB
S/B [23]: 3.21
Ave AEB [24]: 1.02 AEB
S/B [24]: 93.1
Ave AEB [25]: 1.27 AEB
S/B [25]: 70.5
